The values below come from publication doi:10.1101/2025.01.30.635686 (bioRxiv, 2025).

Where a chain is given by its changes, count along the chain named. Numbers in names are those of the source. Read-outs that look alike come from different tables or passages of the source.

The data set “SEC” deals with the molecule itself. The experiment in a line: SEC. (Size exclusion chromatography separates by hydrodynamic size, large species first.)
Data set [1] concerns the molecule itself.

B1: ^hexYME1L (hex-tag, 10-residue linker and the catalytic domain of human YME1L, residues 317-773) (other, homo sapiens)
chain: GELKAIAQELKAIAKELKAIAWELKAIAQGAGGSGSYFQSNARFRTTTGLDSAVDPVQMKNVTFEHVKGVEEAKQELQEVVEFLKNPQKFTILGGKLPKGILLVGPPGTGKTLLARAVAGEADVPFYYASGSEFDEMFVGVGASRIRNLFREAKANAPCVIFIDELDSVGGKRIESPMHPYSRQTINQLLAEMDGFKPNEGVIIIGATNFPEALDNALIRPGRFDMQVTVPRPDVKGRTEILKWYLNKIKFDQSVDPEIIARGTVGFSGAELENLVNQAALKAAVDGKEMVTMKELEFSKDKILMGPERRSVEIDNKNKTITAYHESGHAIIAYYTKDAMPINKATIMPRGPTLGHVSLLPENDRWNETRAQLLAQMDVSMGGRVAEELIFGTDHITTGASSDFDNATKIAKRMVTKFGMSEKLGVMTYSDTGKLSPETQSAIEQEIRILLRDSYERAKHILKTHAKEHKNLAEALLTYETLDAKEIQIVLEGKKLEVR
Take B1: the stoichiometry N (commonly the number of molecules, sites or subunits per partner or assembly) in “SEC” turned out to be 6.

B2: ^hexYME1L_(E439A) M452C (other, homo sapiens)
chain: B1 chain with E165A, M178C
B2: the “stoichiometry N” value in data set [1] worked out at 6.

B3: ^hexYME1L_(E439A) M701C (other, homo sapiens)
chain: B1 chain with E165A, M427C
B3: in data set [1], the “stoichiometry N” value came out at 6.

B4: ^hexYME1L_(E439A) M500C (other, homo sapiens)
chain: B1 chain with E165A, M226C
In the case of B4, the “stoichiometry N” value in data set [1] was 6.
